Source: US5910570A, “Cloned DNA encoding a UDP-GalNAc: polypeptide N-acetylgalactosaminy-ltransferase” (Pharmacia & Upjohn Company, priority 1997, dated 1999)
Where “and” joins values, the source holds several entries; their conditions need not be identical. Equal values may be shown once.

B1: cloned soluble GalNAc-transferase (GalNAcTs) (Bos taurus) (protein)
chain: LEPVQKPHEGPGEMGKPVVIPKEDQEKMKEMFKINQFNLMASEMIALNRSLPDVRLEGCKTKVYPDNLPTTSVVIVFHNEAWSTLLRTVHSVINRSPRHMLEEIVLVDDASERDFLKRPLESYVKKLKVPVHVIRMEQRSGLIRARLKGAAVSKGQVITFLDAHCECTVGWLEPLLARIKHDRKTVVCPIIDVISDDTFEYMAGSDMTYGGFNWKLNFRWYPVPQREMDRRKGDRTLPVRTPTMAGGLFSIDRDYFQEIGTYDAGMDIWGGENLEISFRIWQCGGTLEIVTCSHVGHVFRKATPYTFPGGTGQIINKNNRRLAEVWMDEFKNFFYIISPGVTKVDYGDISSRLGLRHKLQCRPFSWYLENIYPDSQIPRHYFSLGEIRNVETNQCLDNMARKENEKVGIFNCHGMGGNQVFSYTANKEIRTDDLCLDVSKLNGPVTMLKCHHLKGNQLWEYDPVKLTLQHVNSNQCLDKATDEDSQVPSIRDCSGSRSQQWLLRNVTLPEIF
notes: The plasmid pAC373-GalNAcT (Homa et al., 1993) which contains the full length GalNAc-transferase gene; honeybee melittin signal peptide (21 aa) (N, cleaved yes); made in house; host or cells: Sf9 cells / baculovirus, purified from serum-free culture medium on apomucin-Sepharose
B2: bovine colostrum GalNAc-transferase (Bos taurus) (protein)
chain: GLPAGDVLEPVQKPHEGPGEMGKPVVIPKEDQEKMKEMFKINQFNLMASEMIALNRSLPDVRLEGCKTKVYPDNLPTTSVVIVFHNEAWSTLLRTVHSVINRSPRHMLEEIVLVDDASERDFLKRPLESYVKKLKVPVHVIRMEQRSGLIRARLKGAAVSKGQVITFLDAHCECTVGWLEPLLARIKHDRKTVVCPIIDVISDDTFEYMAGSDMTYGGFNWKLNFRWYPVPQREMDRRKGDRTLPVRTPTMAGGLFSIDRDYFQEIGTYDAGMDIWGGENLEISFRIWQCGGTLEIVTCSHVGHVFRKATPYTFPGGTGQIINKNNRRLAEVWMDEFKNFFYIISPGVTKVDYGDISSRLGLRHKLQCRPFSWYLENIYPDSQIPRHYFSLGEIRNVETNQCLDNMARKENEKVGIFNCHGMGGNQVFSYTANKEIRTDDLCLDVSKLNGPVTMLKCHHLKGNQLWEYDPVKLTLQHVNSNQCLDKATDEDSQVPSIRDCSGSRSQQWLLRNVTLPEIF
notes: from tissue; host or cells: bovine colostrum

Key:
Format in all cases: biochemical, bovine
[1] = substrate: CC(C)C[C@H](NC(=O)[C@@H]1CCCN1C(=O)[C@H](C)NC(=O)[C@H](C)NC(=O)[C@H](CO)NC(=O)[C@H](C)NC(=O)[C@H](C)NC(=O)[C@H](CC(=O)O)NC(=O)[C@@H]1CCCN1C(=O)[C@@H]1CCCN1)C(=O)N[C@@H](CCCNC(=N)N)C(=O)O; experiment: Kinetic parameters with the cloned soluble GalNAc-transferase (Bond Elut assay); details: other: GalNAcTs; double reciprocal plots
[2] = substrate: C[C@H](NC(=O)[C@@H]1CCCN1C(=O)[C@@H]1CCCN1)C(=O)N[C@@H](CO)C(=O)N[C@H](C(=O)N[C@@H](CO)C(=O)N[C@@H](C)C(=O)N1CCC[C@H]1C(=O)NCC(=O)O)[C@@H](C)O; experiment: as above; details: other: GalNAcTs; double reciprocal plots
[3] = substrate: N=C(N)NCCC[C@H](N)C(=O)N[C@@H](CO)C(=O)N1CCC[C@H]1C(=O)N1CCC[C@H]1C(=O)N1CCC[C@H]1C(=O)O; experiment: Determination of kinetic parameters for acceptor peptides (Dowex-2 assay); details: other: calculated assuming that S0 << Km; pH 7.2
Method: (§1) The transfer of N-acetylgalactosamine to peptide acceptors is assayed by two different assays. The concentration of UDP-GalNAc is saturating in all assays; a Km of 8 μM is reported for bovine colostrum GalNAc-transferase (Elhammer and Kornfeld, 1986). For the determination of kinetic parameters the reaction mixture contains 50 mM Imidazole, pH 7.2, 10 mM MnCl2, 0.5% Triton X-100, 150 μM UDP-GalNAc, approximately 120,000 cpm of UDP-[1-^3 H]-GalNAc, varying concentrations of acceptor (see individual experiments) and approximately 5 mU of enzyme in a final volume of 40 μl; standard incubation time is 20 minutes. The reaction is terminated by placing the samples in a boiling water bath for 1.5 minutes. The reaction product (glycosylated peptide) is separated from unreacted UDP-GalNAc by chromatography on Dowex-2 columns (0.5 ml bed volume) equilibrated in water; the run-through fraction (2.5 ml) containing the glycosylated peptide is collected, supplemented with scintillation fluid and counted for radioactivity. For the determination of the low levels of transfer to serine, the assay conditions are as follows: 50 mM Imidazole, pH 7.2, 10 mM MnCl2, 0.5% Triton X-100, 150 μM UDP-GalNAc, approximately 260,000 cpm UDP-[^3 H]-GalNAc and 3.2 mM acceptor peptide (the concentration of RSPPP is 3.7 mM). The assays are incubated for 20 minutes ([…]) [SEQ ID NO:14] or 8 hours ([…] [SEQ ID NO:15], PPAdSSdSAPG and RSPPP [SEQ ID NO:13]). Following incubation, the enzyme is inactivated by placing the samples on a boiling water bath for 1.5 minutes. The samples are then allowed to cool and the reaction products are separated from unreacted UDP-GalNAc and free GalNAc by chromatography on a Biogel P-2 column (1×50 cm) equilibrated in 7% isopropanol; thirty 1.3 ml fractions are collected.
(§2) Assays were carried out as described in Materials and Methods.
(§3) Assay time was 20 minutes.
(§4) The values are given as means ± S.E. (n = 3)

[4] = substrate: C[C@H](NC(=O)[C@@H]1CCCN1C(=O)[C@@H]1CCCN1)C(=O)N[C@H](CO)C(=O)N[C@H](C(=O)N[C@H](CO)C(=O)N[C@@H](C)C(=O)N1CCC[C@H]1C(=O)NCC(=O)O)[C@@H](C)O; experiment: as above; details: other: calculated assuming that S0 << Km; pH 7.2
Method: as §1, §2, §3, §4

[5] = substrate: C[C@H](NC(=O)[C@@H]1CCCN1C(=O)[C@@H]1CCCN1)C(=O)N[C@@H](CO)C(=O)N[C@@H](CO)C(=O)N[C@@H](CO)C(=O)N[C@@H](C)C(=O)N1CCC[C@H]1C(=O)NCC(=O)O; experiment: as above; details: other: calculated assuming that S0 << Km; pH 7.2
Method: as §1, §2, §3, §4

[6] = substrate: C[C@@H](O)[C@H](NC(=O)[C@@H](N)CCCNC(=N)N)C(=O)N1CCC[C@H]1C(=O)N1CCC[C@H]1C(=O)N1CCC[C@H]1C(=O)O; experiment: as above; details: other: acceptor peptide; 150 μM UDP-GalNAc, 20 minutes; means ± S.E. (n = 3); pH 7.2
Method: as §1, §2, §3, §4

[7] = substrate: C[C@H](NC(=O)[C@@H]1CCCN1C(=O)[C@@H]1CCCN1)C(=O)N[C@@H](CO)C(=O)N[C@H](C(=O)N[C@@H](CO)C(=O)N[C@@H](C)C(=O)N1CCC[C@H]1C(=O)NCC(=O)O)[C@@H](C)O; experiment: as above; details: other: acceptor peptide; 150 μM UDP-GalNAc, 20 minutes; means ± S.E. (n = 3); pH 7.2
Method: as §1, §2, §3, §4

Protein | Km [1] | Km [2] | kcat/Km [3] | kcat/Km [4] | kcat/Km [5] | Km [6] | kcat [6] | kcat/Km [6] | Km [7] | kcat [7] | kcat/Km [7]
B1 | 3.6 mM and 3.5 mM | 6.5 mM | – | – | – | – | – | – | – | – | –
B2 | – | – | 0.4 M⁻¹ s⁻¹ | 1.2 M⁻¹ s⁻¹ | 8.5 M⁻¹ s⁻¹ | 3.3 mM | 0.604 ± 0.083 s⁻¹ | 183 M⁻¹ s⁻¹ | 6 mM | 1.81 ± 0.357 s⁻¹ | 301 M⁻¹ s⁻¹
